US12559863B2, “Macrocyclic modulators of disease associated protein misfolding and aggregation” (RESQ BIOTECH, priority 2017, dated 2026)

Target: T1, SOD1(A4V) (Homo sapiens, UniProt P00441, A5V)
T1 construct: polyHis; made in house; host or cells: E. coli Origami 2(DE3)
Experiment: Differential scanning fluorimetry of SOD1(A4V) with SYPRO Orange
Format: biochemical
Details: 5:1 peptide to protein ratio
Experimental: FIGS. 4A-4F: (A) Chemical structure of the selected cyclic pentapeptide SOD1C5-4. (B) Circular dichroism spectra of SOD1(A4V) incubated with/without the selected cyclic pentapeptides SOD1C5-4, AβC5-34 or AβC5-116 at room temperature for 90 d (1:1 and 5:1 indicate cyclic peptide:SOD1(A4V) molar ratios). Representative spectra from n=2 independent experiments are presented. (C) Dynamic light scattering analysis of SOD1(A4V) incubated with/without the selected cyclic pentapeptides at room temperature for 60 d. Representative data from n=2 independent experiments are presented. (D) Thioflavin T (ThT) fluorescence of SOD1(A4V) incubated with/without the selected cyclic pentapeptides at room temperature for 90 d. Representative data from n=2 independent experiments are presented. (E) Filter retardation assay of SOD1(A4V) incubated with/without the selected cyclic pentapeptides at 37° C. for 25 d. Representative images from n=2 independent experiments performed in replica duplicates are presented. (F) Differential scanning fluorimetry analysis of isolated SOD1(A4V) in the presence or absence of the selected cyclic pentapeptide SOD1C5-4 (5:1 peptide to protein ratio) using the conformation-sensitive dye SYPRO Orange. Data corresponding to n=2 independent experiments each one performed in three replicates±s.e.m. are presented.

T1 sequence (P00441 whole entry A5V): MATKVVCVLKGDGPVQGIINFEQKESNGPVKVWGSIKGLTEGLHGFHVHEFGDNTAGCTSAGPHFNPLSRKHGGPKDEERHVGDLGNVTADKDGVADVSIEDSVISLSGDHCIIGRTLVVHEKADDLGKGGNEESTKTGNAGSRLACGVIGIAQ

cyclo-TWSVW (cyclic) [SOD1C5-4]
propensity of SOD1(A4V) to expose hydrophobic surfaces (SYPRO Orange, heat-induced denaturation): decrease the propensity of SOD1(A4V) to expose hydrophobic surfaces
